Test results from patent publication US7601687.

Experiments:
[1] = target: B type Insulin Receptor of islet cells (endogenous) (rat or mouse (not stated for the experiment)); test: cell-based or functional assay
[2] = target: B type Insulin Receptor of HIT-T15 cells (endogenous) (hamster); test: cell-based or functional assay

## insulin (ligand)
[1]
  βGK mRNA levels in pancreatic islets (FIG. 4A): 50 µU per ml
[2]
  amount of exogenous insulin necessary to trigger βGK promoter activity (βGK promoter-driven GFP expression, HIT cells, FIG. 4B): 20 µU per ml
